The assay has as its target 6xHis-eugenol-oxidase-StrepTag-II (recombinant eugenol oxidase from Rhodococcus jostii) (Rhodococcus sp. RHA1). Nature of the assay: SEC; pure EUGO on Superdex 200 10/300 GL (AKTA Pure), 100 uL loaded, 0.5 mL/min, running buffer 50 mM Tris-Base pH 8 with 150 mM NaCl; size estimated from a protein standard mix (15-600 kDa).

Broadly, the stoichiometry N is the number of molecules, sites or subunits per partner or assembly.

Regarding “6xHis-eugenol-oxidase-StrepTag-II (recombinant eugenol oxidase from Rhodococcus jostii) (enzyme)”, the stoichiometry N is 2.
